# Source: patent publication US20190284240A1 (OHIO STATE INNOVATION FOUNDATION, published 2019)
# Square brackets hold non-standard residues; d marks the D form. Pmp = N[C@@H](Cc1ccc(CP(=O)(O)O)cc1)C(=O)O; pY = N[C@@H](Cc1ccc(OP(=O)(O)O)cc1)C(=O)O; 2Nal = N[C@@H](Cc1ccc2ccccc2c1)C(=O)O
# B1: BH25 (peptide)
# peptide: cyclo(FA[dA][dP]PRR[pY]VN)
# SMILES: CC(C)[C@@H]1NC(=O)[C@H](Cc2ccc(OP(=O)(O)O)cc2)NC(=O)[C@H](CCCNC(=N)N)NC(=O)[C@H](CCCNC(=N)N)NC(=O)[C@@H]2CCCN2C(=O)[C@H]2CCCN2C(=O)[C@@H](C)NC(=O)[C@H](C)NC(=O)[C@H](Cc2ccccc2)NC(=O)[C@H](CC(N)=O)NC1=O
# notes: Control peptide: the Nal-arg of BH23 is replaced with Ala-ala; also called cyclo[F-A-a-p-P-R-R-pY-V-N); negative control peptide BH25
# B2: BH16 (peptide)
# peptide: cyclo(FF[2Nal][dR][dP]PRRFLNAETGE)
# SMILES: CC(C)C[C@@H]1NC(=O)[C@H](Cc2ccccc2)NC(=O)[C@H](CCCNC(=N)N)NC(=O)[C@H](CCCNC(=N)N)NC(=O)[C@@H]2CCCN2C(=O)[C@H]2CCCN2C(=O)[C@@H](CCCNC(=N)N)NC(=O)[C@H](Cc2ccc3ccccc3c2)NC(=O)[C@H](Cc2ccccc2)NC(=O)[C@H](Cc2ccccc2)NC(=O)[C@H](CCC(=O)O)NC(=O)CNC(=O)[C@H]([C@@H](C)O)NC(=O)[C@H](CCC(=O)O)NC(=O)[C@H](C)NC(=O)[C@H](CC(N)=O)NC1=O
# notes: also called cyclo(F-F-Φ-r-p-P-R-R-F-L-N-A-E-T-G-E)
# B3: BH14 (peptide)
# peptide: cyclo(FF[2Nal][dR][dP]PRRFQLNAETGE)
# SMILES: CC(C)C[C@@H]1NC(=O)[C@H](CCC(N)=O)NC(=O)[C@H](Cc2ccccc2)NC(=O)[C@H](CCCNC(=N)N)NC(=O)[C@H](CCCNC(=N)N)NC(=O)[C@@H]2CCCN2C(=O)[C@H]2CCCN2C(=O)[C@@H](CCCNC(=N)N)NC(=O)[C@H](Cc2ccc3ccccc3c2)NC(=O)[C@H](Cc2ccccc2)NC(=O)[C@H](Cc2ccccc2)NC(=O)[C@H](CCC(=O)O)NC(=O)CNC(=O)[C@H]([C@@H](C)O)NC(=O)[C@H](CCC(=O)O)NC(=O)[C@H](C)NC(=O)[C@H](CC(N)=O)NC1=O
# notes: also called cyclo(F-F-Φ-r-p-P-R-R-F-Q-L-N-A-E-T-G-E)
# B4: BH18 (peptide)
# peptide: cyclo(F[2Nal][dR][dP]PRRFLNAETGE)
# SMILES: CC(C)C[C@@H]1NC(=O)[C@H](Cc2ccccc2)NC(=O)[C@H](CCCNC(=N)N)NC(=O)[C@H](CCCNC(=N)N)NC(=O)[C@@H]2CCCN2C(=O)[C@H]2CCCN2C(=O)[C@@H](CCCNC(=N)N)NC(=O)[C@H](Cc2ccc3ccccc3c2)NC(=O)[C@H](Cc2ccccc2)NC(=O)[C@H](CCC(=O)O)NC(=O)CNC(=O)[C@H]([C@@H](C)O)NC(=O)[C@H](CCC(=O)O)NC(=O)[C@H](C)NC(=O)[C@H](CC(N)=O)NC1=O
# notes: also called cyclo(F-Φ-r-p-P-R-R-F-L-N-A-E-T-G-E)
# B5: BH19 (peptide)
# peptide: cyclo(F[2Nal][dR][dP]PRRFNAETGE)
# SMILES: C[C@@H]1NC(=O)[C@H](CC(N)=O)NC(=O)[C@H](Cc2ccccc2)NC(=O)[C@H](CCCNC(=N)N)NC(=O)[C@H](CCCNC(=N)N)NC(=O)[C@@H]2CCCN2C(=O)[C@H]2CCCN2C(=O)[C@@H](CCCNC(=N)N)NC(=O)[C@H](Cc2ccc3ccccc3c2)NC(=O)[C@H](Cc2ccccc2)NC(=O)[C@H](CCC(=O)O)NC(=O)CNC(=O)[C@H]([C@@H](C)O)NC(=O)[C@H](CCC(=O)O)NC1=O
# notes: also called cyclo(F-Φ-r-p-P-R-R-F-N-A-E-T-G-E)
# B6: BH26 (peptide)
# peptide: cyclo(F[2Nal][dR][dP]PRR[Pmp]VN)
# SMILES: CC(C)[C@@H]1NC(=O)[C@H](Cc2ccc(CP(=O)(O)O)cc2)NC(=O)[C@H](CCCNC(=N)N)NC(=O)[C@H](CCCNC(=N)N)NC(=O)[C@@H]2CCCN2C(=O)[C@H]2CCCN2C(=O)[C@@H](CCCNC(=N)N)NC(=O)[C@H](Cc2ccc3ccccc3c2)NC(=O)[C@H](Cc2ccccc2)NC(=O)[C@H](CC(N)=O)NC1=O
# B7: BH13 (peptide)
# peptide: cyclo(FF[2Nal][dR][dP]PRRFQLDPETGE)
# SMILES: CC(C)C[C@@H]1NC(=O)[C@H](CCC(N)=O)NC(=O)[C@H](Cc2ccccc2)NC(=O)[C@H](CCCNC(=N)N)NC(=O)[C@H](CCCNC(=N)N)NC(=O)[C@@H]2CCCN2C(=O)[C@H]2CCCN2C(=O)[C@@H](CCCNC(=N)N)NC(=O)[C@H](Cc2ccc3ccccc3c2)NC(=O)[C@H](Cc2ccccc2)NC(=O)[C@H](Cc2ccccc2)NC(=O)[C@H](CCC(=O)O)NC(=O)CNC(=O)[C@H]([C@@H](C)O)NC(=O)[C@H](CCC(=O)O)NC(=O)[C@@H]2CCCN2C(=O)[C@H](CC(=O)O)NC1=O
# notes: The underlining is not visible, so the entry may be only part of the peptide; also called cyclo(F-F-Φ-r-p-P-R-R-F-Q-L-D-P-E-T-G-E)
# B8: BH23 (peptide)
# peptide: cyclo(F[2Nal][dR][dP]PRR[pY]VN)
# notes: also called cyclo(pY-V-N-F-Φ-r-p-P-R-R); cyclo[F-Φ-r-p-P-R-R-pY-V-N)
# Legend:
# Grb2 SH2 domain [1] = molecular target: T1, Grb2 SH2 domain (UniProt P62993 60-152, limits assumed); assay: fluorescence anisotropy, direct binding of the FAM-labeled ligand to the Grb2 SH2 domain
# T1 construct: domain: SH2 domain
# T1 sequence (P62993 60-152 limits assumed): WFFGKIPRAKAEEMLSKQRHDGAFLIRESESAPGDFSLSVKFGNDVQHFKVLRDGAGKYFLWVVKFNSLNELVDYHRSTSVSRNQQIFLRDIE
# Grb2 SH2 domain [2] = molecular target: T1, Grb2 SH2 domain; assay: FP-based competition assay, unlabeled peptide against the FAM-labeled reporter ligand on the Grb2 SH2 domain
# [3] = molecular target: T2, Kelch-like ECH-associated protein-1 (Keap1) (UniProt Q14145 321-609, limits assumed); assay: fluorescence anisotropy competition assay; reference BH15
# T2 sequence (Q14145 321-609 limits assumed): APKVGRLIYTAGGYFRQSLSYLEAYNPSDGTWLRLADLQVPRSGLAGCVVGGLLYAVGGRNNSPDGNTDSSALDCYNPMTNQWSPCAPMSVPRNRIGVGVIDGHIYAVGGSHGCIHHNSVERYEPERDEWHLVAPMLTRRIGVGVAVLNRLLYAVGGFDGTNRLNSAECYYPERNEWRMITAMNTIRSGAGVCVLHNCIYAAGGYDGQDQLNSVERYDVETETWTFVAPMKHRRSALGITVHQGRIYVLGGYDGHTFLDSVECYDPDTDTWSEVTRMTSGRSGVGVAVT
# Method: (§1) The percentage of inhibition was calculated from the fluorescence anisotropy decrease by using equation
# (§2) and plotted against the inhibitor concentration.
# [4] = molecular target: T2, Kelch-like ECH-associated protein-1 …; assay: fluorescence anisotropy competition assay, displacement of the fluorescent Nrf2 peptide from Keap1
# Method: as §1, §2
# [5] = molecular target: T2, Kelch-like ECH-associated protein-1 …; assay: fluorescence anisotropy competition assay; reference BH13
# Method: as §1, §2
# [6] = molecular target: T2, Kelch-like ECH-associated protein-1 …; assay: fluorescence anisotropy competition assay; reference BH17
# Method: as §1, §2
# [7] = molecular target: T2, Kelch-like ECH-associated protein-1 …; assay: fluorescence anisotropy competition assay; reference peptide not named (34-fold matches BH17, […] nM)
# Method: as §1, §2
# Grb2 SH2 domain [8] = molecular target: T1, Grb2 SH2 domain; assay: binding to the Grb2 SH2 domain; reference BH23
# Grb2 SH2 domain [9] = molecular target: T1, Grb2 SH2 domain; assay: binding to the Grb2 SH2 domain; assay not named, presumably the same FP competition assay
molecule,measurement,setting,value
cyclo(AApYVNFFQ)-β-Ala-K(FAM) (peptide),Kd,Grb2 SH2 domain [1],92 nM
B1,IC50,Grb2 SH2 domain [2],100 nM
B2,fold decrease in affinity vs BH15,[3],~10 fold
same,IC50,[4],1470 nM
B3,fold decrease in affinity vs BH13,[5],~10 fold
same,IC50,[4],1400 nM
B4,fold decrease in affinity vs BH17,[6],~10 fold
same,IC50,[4],1400 nM
B5,IC50,[4],5540 nM
same,fold reduction in inhibition potency,[7],34 fold
B6,fold less potent than BH23,Grb2 SH2 domain [8],~3 fold
same,IC50,Grb2 SH2 domain [9],1370 nM
B7,IC50,[4],153 nM
B8,IC50,Grb2 SH2 domain [2],400 nM
